Results: patent US20250367270A1

Target: SARS-CoV-2 recombinant spike HexaPro protein (SARS-CoV-2) (UniProt P0DTC2)
Assay: SPR

Substance: ACE2 monomer construct (SS-ACE2-Linker) (from UniProt Q9BYF1 19-614)
- Kd: 72 nM
